Results from patent publication US6773918B2, “Detection of phenols using engineered bacteria” (The Regents of the University of California, priority 1999, dated 2004).
Positions count from the first letter of the chain named.

Experiments:
[1] = test system: Pdmp-lacZ reporter fusion; experiment: Liquid β-galactosidase assay, test strain AW101 (Pdmp-lacZ fusion) carrying pAW50 dmpR derivatives, exposed to phenols; type: cell-based, E. coli
Excerpt: Reference will now be made in detail to the present preferred embodiments of the present invention, examples of which are shown in the accompanying drawings. Turning now to FIG. 1, the dmpR wt-N gene (See, e.g., Shingler and Moore, supra) carried on plasmid pAW50 served as the template for amplification of the dpmR sensor domain by mutagenic polymerase chain reaction (PCR). The products resulting from the mutagenic PCR were digested using Ndel and SacII and ligated back into a pAW50 plasmid fragment, from which the wild type Ndel-SacII region had been removed. […] Ligation products were electroporated into AW101 (trp::Pdmp-lacZ fusion). Transformants were initially selected for tetracycline resistance and then replicated onto plates containing X-gal and one of the test phenols. Colonies that developed more blue color than colonies containing wild type DmpR were selected for further analysis with liquid β-galactosidase assays. β-galactosidase activity is proportional to transcription of the Pdmp-lacZ reporter fusion and is, therefore, a measure of particular variant DmpR's ability to detect phenol or specific substituted phenols. This mutagenic procedure led to the identification of more than twenty DmpR derivatives with altered response to phenols. Five of these derivatives are representative of proteins which show significant promise as effective detectors of phenols listed as primary pollutants by the U.S. Environment Protection Agency.
AW101 was used as a test strain to identify and characterize changes in DmpR's sensing capacity subsequent to sensor domain mutagenesis. pAW50 derivatives were electroporated into AW101 and transformants were selected on Luria-Bertani (Difco, Detroit, Mich.) plates containing 10.5 μg/ml tetracycline. Transformants were then replica-plated onto M9 minimal medium (10) plates containing 0.2% glucose, 30 μg/ml tryptophan, 1 μg/ml thiamine, 10.5 μg/ml tetracycline, 0.25% 5-bromo-4-chloro-3-indoyl-β-D-galactoside (X-Gal), and either no inducer (NI) or 0.05 mM of a phenol derivative. Cells that formed blue colonies on plates containing a phenol derivative were subject to liquid β-galactosidase assays.
D. β-Galactosidase Assays. Overnight cultures of AW101 carrying pAW50 derivatives were diluted 1000-fold into Luria-Bertani broth containing 10.5 μg/ml tetracycline. When cells reached an OD595 nm between 0.60 and 0.90 as measured on a Lambda Bio uv/vis spectrophotometer (Perkin Elmer Corp. Analytical Instruments, Norwalk, Conn.), 500 μL samples were pelleted and immediately resuspended in 500 μL spent Luria-Bertani broth containing the appropriate phenol compound. […] Samples were pelleted and frozen at −70° C. for assay the following day.
Liquid β-galactosidase assays were performed using a modification of Miller's assay (Miller, J. H., 1972. “Experiments in Molecular Genetics,” Cold Spring Harbor Laboratory, Cold Spring Harbor, N.Y.). Cell sample pellets were thawed and resuspended in Z buffer. The optical density at 595 nm of each cell suspension was read in a microtiter plate using an automated microplate reader (BIO-TEK Instruments, Inc., Winooski, Vt.). Following the addition of 15 μL 0.1% sodium dodecyl sulfate and 25 μL HCCl3, the remaining cell suspension was vortexed for 30 s to lyse cells. The reaction was begun with the addition of 50 μL o-nitrophenyl-β-D-galactopyranoside (2.5 mg/ml) to the lysed cells. Reactions were incubated at 26° C. until stopped with the addition of 50 μL 1M Na2CO3. Color development of the reactions was read at OD415 on the microplate reader. Arbitrary units for graphing purposes were calculated as (1000×OD415)/(time)(OD595) where time is the reaction time in minutes. Equivalent cell volumes were read for both optical densities.

[2] = test system: Pdmp-lacZ reporter fusion; experiment: β-galactosidase detection of phenols in contaminated soil by the bacterial test strain; type: cell-based, E. coli
Excerpt: FIG. 5a compares the detection of 2,4-dichlorophenol by DmpR-B9 (SEQ ID No. 1 hereof) with that for unsubstituted phenol shown in FIG. 5b in contaminated soil, unsubstituted phenol being a natural effector of wild type DmpR. Detection of chemicals in contaminated soil is often difficult because soil may bind the phenols, making them less available to the test bacteria. […] The response of DmpR-B9 to 4 parts per million (ppm) 2,4-dichlorophenol in soil is six-fold higher than that of wild type DmpR. DmpR-B9′s response to 2.5 ppm phenol is four-fold better than that of wild type.

B1: DmpR-B21: engineered DmpR derivative with mutated sensor domain (SEQ ID No. 3 and No. 9) (protein)
chain: MPIKYKPEIQHSDFKDLTNLIHFQSMEGKIWLGEQRMLLLQFSAMASFRREMVNTLGIERAKGLFLRHGYQSGLKDAELARKLRPNASEVGMFLAGPQMHSLKGLVKVRPTGLDIDKEYGRFYAEMEWIDWFEVEICQTDLGQMQDPVCWTVLGYACAYSSAFMGREIIFKEVSCRGCGG
Q: B1 was tested. Which “increase in β-galactosidase activity” value ([1]; 0.0025 mM solution of 2-chlorophenol (0.3 parts per million)) did it give?
A: 60 fold

Q: And the “response (β-galactosidase activity)” value ([1]; 2,4-dichlorophenol at 0.025 mM (4 parts per million))?
A: elicits a response

B2: DmpR-B31: engineered DmpR derivative with mutated sensor domain (SEQ ID No. 5) (protein)
chain: B1 chain with I58V, A61T, G112E, D146G
Q: Which results are given for B2?
A: response to most substituted phenols ([1]; 2,4-dichlorophenol, 2,4-dimethylphenol, 4-nitrophenol (FIG. 6a)): strong response; uninduced (NI) value ([1]; no inducer (no phenol)): relatively high

B3: DmpR-B17#2: engineered DmpR derivative with mutated sensor domain (SEQ ID No. 2) (protein)
chain: B1 chain with G112E
Q: For B3, which “response to low concentrations of phenol” value ([1]; 2,4-dichlorophenol) is on record?
A: responds to low concentrations

Q: And the “response to low concentrations of phenol” value ([1]; 2-nitrophenol)?
A: responds to low concentrations

Q: And the “response to low concentrations of phenol” value ([1]; 4-nitrophenol)?
A: responds to low concentrations

Q: And the “detection compared with wild type protein” value ([1]; six concentrations of 4-chloro-3-methylphenol)?
A: significantly better detectors

B4: DmpR-B23: engineered DmpR derivative with mutated sensor domain (SEQ ID No. 4) (protein)
chain: B1 chain with Q10R, G112E, K117M
Q: Which results are given for B4?
A: response relative to wild type DmpR ([1]; 0.5 ppm 2-chlorophenol, four-hour exposure): more than 20 fold; effect of four-hour exposure on detection signal (β-galactosidase activity units) ([1]; low concentrations of 2-chlorophenol): increases the detection signal; detection compared with wild type protein ([1]; six concentrations of 2-chlorophenol, 60 minute exposure): significantly better detectors

B5: DmpR-D9: engineered DmpR derivative with mutated sensor domain (SEQ ID No. 6) (protein)
chain: B1 chain with G112E, D116G, K117R, F163L
Q: How did the “response relative to wild type protein” value ([1]; 2-chlorophenol) turn out when B5 was run?
A: nineteen

B6: DmpR-D12: engineered DmpR derivative with mutated sensor domain (SEQ ID No. 7) (protein)
chain: B1 chain with G112E, L141P
Q: B6 was tested. Which “detection relative to wild type DmpR” value ([1]; 3 ppm 2,4-dichlorophenol) did it give?
A: 10 fold

Q: What about the “detection relative to wild type DmpR” value ([1]; 10 ppm 4-chloro-3-methylphenol) of the same molecule?
A: eight

B7: DmpR-B9: engineered DmpR derivative with mutated sensor domain (SEQ ID No. 1) (protein)
chain: B1 chain with K4E, F42S, G112E
Q: Which “response relative to wild type” value ([2]; 2.5 ppm phenol in soil) does the source give for B7 here?
A: four

Q: And the “response relative to wild type DmpR” value ([2]; 4 parts per million (ppm) 2,4-dichlorophenol in soil)?
A: six

Q: What about the “capacity to detect phenols in soil compared with wild type protein” value ([2]; contaminated soil) of the same molecule?
A: significantly better
